Results reported in patent EP4545563A1 (Foreseen Technology (Beijing) Co., Ltd., dated 2024).
Residue numbers refer to the chain shown, from its start.

T1: ITGA2 protein on the surface of human tumor cells (HuCCT1, A431) (human, UniProt P17301 30-1181)
T1 sequence (looked up): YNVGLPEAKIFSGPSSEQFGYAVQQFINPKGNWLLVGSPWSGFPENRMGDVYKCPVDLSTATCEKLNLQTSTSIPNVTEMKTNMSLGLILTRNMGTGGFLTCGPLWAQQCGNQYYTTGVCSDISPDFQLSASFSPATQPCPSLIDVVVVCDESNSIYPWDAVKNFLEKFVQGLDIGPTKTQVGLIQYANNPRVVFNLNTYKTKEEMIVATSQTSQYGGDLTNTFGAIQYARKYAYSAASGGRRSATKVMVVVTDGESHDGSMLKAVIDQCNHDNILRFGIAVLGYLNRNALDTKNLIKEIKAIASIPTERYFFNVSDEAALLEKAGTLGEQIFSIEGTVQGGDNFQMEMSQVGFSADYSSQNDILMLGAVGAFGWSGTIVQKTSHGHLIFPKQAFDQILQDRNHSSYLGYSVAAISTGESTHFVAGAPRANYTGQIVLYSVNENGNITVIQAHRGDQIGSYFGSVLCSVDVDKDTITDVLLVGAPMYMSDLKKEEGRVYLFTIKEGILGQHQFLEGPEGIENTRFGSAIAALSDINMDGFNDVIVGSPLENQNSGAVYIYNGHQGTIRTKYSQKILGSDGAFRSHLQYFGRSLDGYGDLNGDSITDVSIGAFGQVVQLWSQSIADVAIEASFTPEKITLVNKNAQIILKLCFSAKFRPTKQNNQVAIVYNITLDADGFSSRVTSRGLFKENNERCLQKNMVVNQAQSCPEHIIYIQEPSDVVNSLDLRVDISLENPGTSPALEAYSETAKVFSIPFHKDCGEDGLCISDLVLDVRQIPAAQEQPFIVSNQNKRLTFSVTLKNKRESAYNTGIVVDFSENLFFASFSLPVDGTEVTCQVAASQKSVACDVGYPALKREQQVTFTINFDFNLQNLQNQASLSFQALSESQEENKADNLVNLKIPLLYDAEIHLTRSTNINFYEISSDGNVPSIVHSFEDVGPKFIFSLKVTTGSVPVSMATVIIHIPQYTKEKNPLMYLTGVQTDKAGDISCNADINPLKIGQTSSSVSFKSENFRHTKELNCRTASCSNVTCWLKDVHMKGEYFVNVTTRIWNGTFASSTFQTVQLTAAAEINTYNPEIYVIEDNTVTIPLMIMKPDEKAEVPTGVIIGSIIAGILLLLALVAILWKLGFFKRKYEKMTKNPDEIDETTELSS

T2: ITGA2-His (human, UniProt P17301 30-1132, limits assumed)
T2 construct: also called ITGA2 protein; not shown: His tag
T2 sequence (looked up): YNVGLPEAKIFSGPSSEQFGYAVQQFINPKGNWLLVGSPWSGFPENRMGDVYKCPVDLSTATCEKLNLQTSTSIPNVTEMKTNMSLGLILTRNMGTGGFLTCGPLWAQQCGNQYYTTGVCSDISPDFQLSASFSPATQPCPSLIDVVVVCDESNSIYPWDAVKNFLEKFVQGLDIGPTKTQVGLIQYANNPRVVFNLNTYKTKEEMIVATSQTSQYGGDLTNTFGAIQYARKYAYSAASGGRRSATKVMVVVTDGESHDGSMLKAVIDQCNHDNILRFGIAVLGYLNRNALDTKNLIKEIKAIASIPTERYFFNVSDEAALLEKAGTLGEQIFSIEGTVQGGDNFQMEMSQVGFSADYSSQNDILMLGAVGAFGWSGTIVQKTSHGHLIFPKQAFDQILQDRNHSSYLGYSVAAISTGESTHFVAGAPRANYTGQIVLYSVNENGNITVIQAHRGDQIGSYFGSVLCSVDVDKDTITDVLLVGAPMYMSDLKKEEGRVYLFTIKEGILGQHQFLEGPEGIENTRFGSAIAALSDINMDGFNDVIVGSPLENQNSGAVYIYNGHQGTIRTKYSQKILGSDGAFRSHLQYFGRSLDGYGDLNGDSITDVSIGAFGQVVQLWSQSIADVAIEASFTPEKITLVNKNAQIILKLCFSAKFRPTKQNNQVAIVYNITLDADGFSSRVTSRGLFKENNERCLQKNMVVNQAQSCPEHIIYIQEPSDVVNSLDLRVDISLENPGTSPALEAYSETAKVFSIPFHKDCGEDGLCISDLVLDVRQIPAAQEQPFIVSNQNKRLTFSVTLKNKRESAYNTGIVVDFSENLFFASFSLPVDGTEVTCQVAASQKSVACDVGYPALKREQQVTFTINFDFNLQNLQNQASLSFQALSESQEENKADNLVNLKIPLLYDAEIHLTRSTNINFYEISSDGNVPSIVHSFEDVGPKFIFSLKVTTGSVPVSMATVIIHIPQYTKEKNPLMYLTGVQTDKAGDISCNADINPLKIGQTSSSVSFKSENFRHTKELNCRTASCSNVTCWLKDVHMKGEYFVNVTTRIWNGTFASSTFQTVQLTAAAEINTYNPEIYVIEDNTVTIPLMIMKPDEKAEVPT

B1: FS002-A1-vc-MMAE (antibody, V domains shown)
VH: QVQLVQSGAEVKKPGASVKVSCKASGYTFTSYYMHWVRQAPGQGLEWMGIINPSGGSTSYAQKFQGRVTMTRDTSTSTVYMELSSLRSEDTAVYYCARDISGSYQTDAFDIWGQGTMVTVSS
VL: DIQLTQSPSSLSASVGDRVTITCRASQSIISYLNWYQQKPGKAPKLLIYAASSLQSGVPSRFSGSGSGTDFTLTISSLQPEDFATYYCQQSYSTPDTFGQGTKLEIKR
modifications: vc-MMAE (mc-vc-PAB-MMAE) linker-payload conjugated after TCEP reduction, DAR 3.4 for the whole antibody; sites not stated
B2: FS002-A15-vc-MMAE (antibody, human IgG1, kappa, V domains shown)
VH: RLQLQESGPGLVKPSQTLSLTCTVSGGSISSGGYYWSWIRQHPGKGLEWIGYIYYSGSTYYNPSLKSRVTISVDTSKNQFSLKLSSVTAADTAVYYCARATIYGYFDYWGQGTLVTVSS
VL: EIVLTQSPATLPLSPGERATLSCRASQSVGFYLAWYQQKPGQPPRLLFYDASKRATGIPARFSASGSGTDFTLTISGLEPEDFAVYYCQHRISWPLTFGQGTKVEVKR
modifications: vc-MMAE (mc-vc-PAB-MMAE) linker-payload conjugated after TCEP reduction, DAR 2.9 for the whole antibody; sites not stated
B3: FS002-A36-vc-MMAE (antibody, human IgG1, kappa, V domains shown)
VH: QVQLQESGPGLVKPSQTLSLTCTVSGGSISSGGYYWSWIRQHPGKGLEWIGYIYYSGSTYYNPSLKSRVTISVDTSKNQFSLKLSSVTAADTAVYYCARVRLLGGGFDIWGQGTTVTVSS
VL: EIVLTQSPATLSLSPGERATLSCRASQSVSTYLAWYQQKPGQAPRLLIYDTSIRATGIPARFSGSGSGTDFTLTISSLEPEDFAVYYCQQRSNWPLTFGGGTKVEIKR
modifications: vc-MMAE (mc-vc-PAB-MMAE) linker-payload conjugated after TCEP reduction, DAR 3.8 for the whole antibody; sites not stated
B4: Humanized antibody FS002-A5 (antibody, human IgG1, kappa, V domains shown)
VH: QVQLQDSGPGLVKPSQTLSLTCTVSGGSISSGGYYWSWIRQHPGKGLEWIGYIYYSGSTYYNPSLKSRVTISVDTSKNQFSLKLSSVTAADTAVYYCARVPVPLVGAFDIWGQGTMVTVSS
VL: B3 VL with T31S, Y32N, A34G, R45S, D50G, T51A, I53N, S92D, N93T
notes: IgG1 heavy chain, kappa light chain
B5: Humanized antibody FS002-A66 (antibody, human IgG1, kappa, V domains shown)
VH: EVQLVESGGGVVQPGRSLRLSCAASGFTFSSYAMHWVRQAPGKGLEWVAVISYDGSNKYYVDSVKGRFTISRDNSKNTLYLQMNSLRAEDTAVYYCARDRITYLDYYYYGMDVWGQGTTVTVSS
VL: B3 VL with T10I, T31E, T51I, I53N, G68E, S92R, N93T, G100P, E105D
notes: as for B4
B6: Humanized antibody FS002-A72 (antibody, human IgG1, kappa, V domains shown)
VH: QVQLVDSGGGLVQPGGSLRLSCVASGFAFSNYEMNWVRQAPGKGLEWVSYISSSSSYTNYADSVKGRFTISRDNAKNSLYLQMNSLRAEDTAVYYCARAQVRDAFDIWGQGTTVTVSS
VL: IVMTQSPVTLSVSPGDSATLSCRASQSVDKNLAWYQQKTGQAPRLLIYGAATRATGIPARFSGSGSGTEFTLTISSLRSEDFAVYYCQQYRNWPWTFGLGTKVEIKR
notes: as for B4
B7: Humanized antibody FS002-B27 (antibody, human IgG1, kappa, V domains shown)
VH: QVQLVQSGAEVKKPGSSVKVSCKASGGTFSSYAISWVRQAPGQGLEWMGRIIPILGIANYAQKFQGRVTITADKSTSTAYMELSSLRSEDTAVYYCARAEGSSWYYFDYWGQGTLVTVSS
VL: NIQLTQSPSSVSASVGDRVTITCRASQGFSRWLAWYQQKPGKAPKLLIYGASSLQSGVPSRFSGSGSGTDFTLTISSLQPEDFATYYCQQANSFPLTFGGGTKLEIKR
notes: as for B4
B8: Humanized antibody FS002-C11 (antibody, human IgG1, kappa, V domains shown)
VH: RLQLQESGPRLVKPSETLSLTCSVSGGSISSRNHYWAWIRQPPGKGLEWIGYIYYSGSTYYNPSLKSRVTISVDTSKNQFSLKLSSVTAADTAVYYCARVGLLLRDFDYWGQGTLVTVSS
VL: DIQMIQSPSSVSASVGDRVTITCRASQGISNSLAWYQHKPGTTPKLLIYAASSLQGGVPSRFSGSSSETDFTLTISSLQPEDFATYYCQQANSFPITFGQGTRLDIKR
notes: as for B4

How the values were obtained:
[1] = target: T1, ITGA2 protein on the surface of human …; assay: cell-based or functional assay
ITGA2-His = target: T2, ITGA2-His; assay: ELISA, plate coated with 2 ug/mL ITGA2-His, anti-human IgG-Fc-HRP detection
[2] = target: T1, ITGA2 protein on the surface of human …; assay: flow cytometry on HuCCT1 cells, goat anti-human IgG (H+L) secondary antibody

| Binder | A431 cell killing IC50 [1] [nM] | HuCC-T1 cell killing IC50 [1] [nM] | EC50 (ITGA2-His) [nM] | EC50 [2] [nM] |
| --- | --- | --- | --- | --- |
| B1 | 0.14 | 0.14 |  |  |
| B2 | 0.2 | 0.2 |  |  |
| B3 | 0.02 | 0.08 |  |  |
| B4 |  |  | 0.032 | 1.27 |
| B5 |  |  | 0.031 | 2.35 |
| B6 |  |  | 0.259 | 17.2 |
| B7 |  |  | 0.571 | 2.75 |
| B8 |  |  | 0.035 | 0.747 |
